# Test results published in patent US20250179139A1 (CENTRO DE INMUNOLOG A MOLECULAR, published 2025).
# B1: recombinant extracellular domain of the human IL-2 receptor beta subunit (receptor, UniProt P14784 27-240, looked up)
# chain: AVNGTSQFTCFYNSRANISCVWSQDGALQDTSCQVHAWPDRRRWNQTCELLPVSQASWACNLILGAPDSQKLTTVDIVTLRVLCREGVRWRVMAIQDFKPFENLRLMAPISLQVVHVETHRCNISWEISQASHYFERHLEFEARTLSPGHTWEEAPLLTLKQKQEWICLETLTPDTQYEFQVRVKPLQGEFTTWSPWSQPLAFRTKPAALGKDT
# notes: extracellular domain; also called beta chain of the IL-2 receptor; beta subunit of the receptor
# B2: IL-2 variant 1A displayed on phage (S2 library) (other, not shown: large carriers; small tags and cut ends)
# chain: TSSSTKKTQLQLEHLLLDLQMILNGINNYKNPKLTRMLTFKFYMPKKATELKHLQCLEEELKPLEEVLNLAQSKNFHFDPHDVVENINVLLLELKGSETTFMCEYADETATIVEFLNRWITFSQSIISTLT
# notes: Substitutions are derived from the segment name printed for the fusion protein built from this clone
# What was measured:
# [1] = molecular target: T1, H9/Fc (K35E) fusion protein (human, UniProt P60568 21-153); assay: BIAcore (SPR); format not stated
# T1 construct: mature; Same format as the other Fc fusions; also called fusion protein based on the H9 superkine
# [2] = molecular target: T2, IL-2/Fc (K35E) fusion protein (human, UniProt P60568 21-153); assay: BIAcore (SPR); format not stated
# T2 construct: mature; IL-2 fused to the N-terminal end of human IgG1 Fc; also called fusion protein derived from the original IL-2; human IL-2/Fc fusion protein
# [3] = molecular target: B1; assay: phage ELISA; ratio of the signal on the beta subunit extracellular domain to the signal on anti-c-myc antibody 9E10 (display level); anti-M13 antibody-HRP
# Experimental: The binding capacity of the new variants to the extracellular domain of the IL-2 receptor beta subunit was assessed by ELISA. For this purpose, plates were coated with the recombinant extracellular domain of the IL-2 receptor beta subunit. The bound phages were detected with an anti-M13 antibody conjugated to horseradish peroxidase. Simultaneously, their binding to a plate coated with the monoclonal antibody 9E10 directed against the c-myc peptide that is fused to the proteins presented on the phages was determined to establish the display levels of each. The ratio between the signals obtained with both coating molecules (relative reactivity) is plotted as a measure of the intrinsic binding capacity of each variant to the beta-subunit.
# T1 sequence (P60568 other isoform, or with tags, fused parts or gaps K35E K35E limits assumed): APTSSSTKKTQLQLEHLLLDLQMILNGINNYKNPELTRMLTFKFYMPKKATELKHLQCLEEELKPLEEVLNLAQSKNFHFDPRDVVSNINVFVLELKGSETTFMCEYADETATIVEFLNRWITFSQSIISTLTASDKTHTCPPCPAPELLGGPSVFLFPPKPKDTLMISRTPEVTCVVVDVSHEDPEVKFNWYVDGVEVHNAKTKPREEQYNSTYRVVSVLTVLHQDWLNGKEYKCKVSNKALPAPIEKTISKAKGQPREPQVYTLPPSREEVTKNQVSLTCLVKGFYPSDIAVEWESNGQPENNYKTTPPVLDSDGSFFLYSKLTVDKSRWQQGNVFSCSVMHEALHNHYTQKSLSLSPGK
# T2 sequence (P60568 other isoform, or with tags, fused parts or gaps K35E K35E limits assumed): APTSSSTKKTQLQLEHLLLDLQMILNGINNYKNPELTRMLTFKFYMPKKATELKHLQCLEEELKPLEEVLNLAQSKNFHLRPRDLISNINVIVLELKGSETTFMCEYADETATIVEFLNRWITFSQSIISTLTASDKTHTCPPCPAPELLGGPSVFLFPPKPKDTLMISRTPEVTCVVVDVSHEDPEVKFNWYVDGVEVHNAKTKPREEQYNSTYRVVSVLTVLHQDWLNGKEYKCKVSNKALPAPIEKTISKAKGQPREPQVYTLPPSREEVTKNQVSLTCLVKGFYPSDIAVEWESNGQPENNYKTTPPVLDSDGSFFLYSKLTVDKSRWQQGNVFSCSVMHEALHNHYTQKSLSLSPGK
Binder,Kd [1] [nM],koff [1] [s⁻¹],kon [1] [M⁻¹ s⁻¹],Kd [2] [nM],koff [2] [s⁻¹],kon [2] [M⁻¹ s⁻¹],binding result [3]
B1,4.09,0.000395,97200,106,0.00326,30800,–
B2,–,–,–,–,–,–,binds
